Source: the DeepSol protein solubility set

Assay: soluble on expression in E. coli; label from the status in PepcDB or PDB records

Sequence | soluble on expression in E. coli
MSLSQPNFYQRTHIPYTAYTPEIFQEFVDDYIDSLNSSFVPVKGIHEEQVRDEAVKLYNQLSDSLGVHRPPFPNPRVKTMVFTPFISMVGVTGSMGPFFCEFTLNGDLLPINYPATYTHELAHLLGISSEAEANFYAYQVCTRSQIKGIRFSGYFSILNHVLGNARRLLSEKEYADIINRIRPEIIELAKKNQEYWMAKYSPLIGDVQNWIYDLYLKGNKIESGRKNYSEVIGLLISYQVWKAKTASDEGHHHHHH | soluble
MSLSQQQKQVQKLAMTQQLQQSIQILQFNTEELAAFVEAKALENPLIDLQVDTQYTTDFPITSRSYTNQDEENNYMNQIPDYHLSLFESLIDQIHLNYRDTYLRTLVLFLVEYIDVNGYLTISLEEAAVKTEASAIQMLDALTLLQQLDPAGVGARNLQECLMLQTERDDTAPNLAYILLEEEFDALVSRKWGPLAKKFGIELAEIQLIFDYIQTLSPAPGNIFDATEELYIRPDLTVRIKEDRIVVISNKAGRPTLNFQENYFKRMQETDDKEVQEYIKDKKNEFEWLERAVNQRGDTILRVGQEIVRRQEAFFLEADRPLKPMTLKEIADALSIHESTVSRAVNGKYLETTFGVFELRSFFSTSILSSEEDGEDVSTTMVKKQLQKLIDQEVKSKPLSDQKLVERLKDSGMEISRRTVAKYREALGIPSSSKRKRYEEGHHHHHH | soluble
MSLSQRGLEALLRPKSIAVIGASMKPNRAGYLMMRNLLAGGFNGPVLPVTPAWKAVLGVLAWPDIASLPFTPDLAVLCTNASRNLALLEELGEKGCKTCIILSAPASQHEDLRACALRHNMRLLGPNSLGLLAPWQGLNASFSPVPIKRGKLAFISQSAAVSNTILDWAQQRKMGFSYFIALGDSLDIDVDELLDYLARDSKTSAILLYLEQLSDARRFVSAARSASRNKPILVIKSGRSPAAQRLLNTTAGMDPAWDAAIQRAGLLRVQDTHELFSAVETLSHMRPLRGDRLMIISNGAAPAALALDALWSRNGKLATLSEETCQKLRDALPEHVAISNPLDLRDDASSEHYIKTLDILLHSQDFDALMVIHSPSAAAPATESAQVLIEAVKHHPRSKYVSLLTNWCGEHSSQEARRLFSEAGLPTYRTPEGTITAFMHMVEYRRNQKQLRETPALPSNLTSNTAEAHLLLQQAIAEGATSLDTHEVQPILQAYGMNTLPTWIASDSTEAVHIAEQIGYPVALKLRSPDIPHKSEVQGVMLYLRTANEVQQAANAIFDRVKMAWPQARVHGLLVQSMANRAGAQELRVVVEHDPVFGPLIMLGEGGVEWRPEDQAVVALPPLNMNLARYLVIQGIKSKKIRARSALRPLDVAGLSQLLVQVSNLIVDCPEIQRLDIHPLLASGSEFTALDVTLDISPFEGDNESRLAVRPYPHQLEEWVELKNGERCLFRPILPEDEPQLQQFISRVTKEDLYYRYFSEINEFTHEDLANMTQIDYDREMAFVAVRRIDQTEEILGVTRAISDPDNIDAEFAVLVRSDLKGLGLGRRLMEKLITYTRDHGLQRLNGITMPNNRGMVALARKLGFNVDIQLEEGIVGLTLNLAQREESEGGSHHHHHH | soluble
MSLSRKRKSYSAEFKTRVVLELLGGEETVAQIASKYEITPKSLIDWKKQFLENASLVFDVGSATKAYKDEIEELKTENDALAKKLGKTTIERDWAVGKLKSLGLSNKKDLVTPKLKNLSMARQCEIIDLNRSTLYYEPKPISDNDLKIMKRIDEIYTDISSTYGYRFMHRQLLEDGFSIGVNKVNKLMNTMGIQAIFPKKKRHTSIKNYKHKIYPYLLRELEINRANQVWSGDITYIPIKGGFVYLCAIIDWHSKTILSWKISTTMDTSLVTDVLKEAIEKYDIPVIFNSDQGSQYTSHEHTELLKKHNIQISMNGKGRSIDNIAIERFFRTLKYDEIYINEYSSISDLRFKVSRYINFYNHNRFHSALNYQKPMNVYLEGLKNVAEGHHHHHH | not soluble
MSLSRLLPDPDVAGAWMVRVGDADQSWIDPDDPTRLEFDYMQRIADHLDVHRPAGERMRVIHLGGAGMCLARYVAATRPTSPQIVCEPDAELTAEVRLKAPLPVRSGIKVRPVDGRSGVAAMREDFADVVILDAFDGARVPGDLVTVEFFADVSRILHSDGIGVANLADSAPLVWTKRVVRSVKEVFSNVCMAAEPATLKGRRYGNIVLAASNGPLHEEDLTRRCSGAAVPFRFIAGDALAKLLADARPFHDGDTESSEGHHHHHH | not soluble
MSLSRSEEMHRLTENVYKTIMEQFNPSLRNFIAMGKNYEKALAGVTFAAKGYFDALVKMGELASESQGSKELGDVLFQMAEVHRQIQNQLEETLKSFHNELLTQLEQKVELDSRYLSAALKKYQTEQRSKGDALDKCQAELKKLRKKSQGSKNPQKYSDKELQYIDAISNKQGELENYVSDGYKTALTEERRRFCFLVEKQCAVAKNSAAYHSKGKELLAQKLPLWQQACADPNKIPDRAVQLMQQMANSNGSILPSALSASKSNLVISDPIPGAKPLPVPPELAPFVGRMSAQENVPVMNGVAGPDSEDYNPWADRKAAQPKSLSPPQSQSKLSDSYSNTLPVRKSVTPKNSYATTENKTLPRSSSMAAGLERNGRMRVKAIFSHAAGDNSTLLSFKEGDLITLLVPEARDGWHYGESEKTKMRGWFPFSYTRVLDSDGSDRLHMSLQQGKSSSTGNLLDKDDLALPPPDYGTSSRAFPTQTAGTFKQRPYSVAVPAFSQGLDDYGARSVSR | not soluble
MSLSTFDYDLIIIGSGPSGRAAAIQAGKLKRRVLVIDRKDRLGGVSVHTGTIPSKTLRETVLNLSGWRERSFYGRSYRVKDRISAEDLKARLHMTLDYEVDVLEHQFNRNHIDTLNGLARFVGPHEIEVATEAGDTTRLTAAKFLIATGTKTYRPDYVPFNGKTVVDGDDFLEMERIPRSLAVIGAGVIGVEYASMFSALDVRVTLIEPRETFLDFIDRTLIQEFTHQIRENGVDLRLGSAVEKIEDTGSHIEISLANGRHIRAEMLLFAAGRMGATSALNLDAVGLETDHRNRITVDRKTYQTSVPHIYATGDVIGHPSLASTSMQQGRVAACHALETPTLPESPWFPYGIYSVPEMSTCGMSEEELQERGIPYEVGVARFRETSRGHIMGLEHGMLKMLLSLKTRRVLGVQIVGEGATELIHIGQAVMNLKGTVDYFVQNTFNYPTLAEAYRTAGLDAFNRMPIPEEFKVKEGHHHHHH | soluble
MSLSVPFEYTPIAQSVLDECEHLDTASLSDALDSLGIDGGLPGIASQVPGTRCVGIAFTVQYQPVDASEGFRGAANYIDQVPSGSVIVSSNSGRHDCTVWGDIMTHFALANGIKGTVIDGVARDIDTVINCNYPLFSRGRFMQSAKNRTQLKAVQVPLVIDGITIQPGDLMVCDGSGCVVVPQQLAAEVVLRARAVEQTERRIIEAISSGSTLEQARMTYRYDQPWLSEAEHGGTQEGHHHHHH | soluble
MSLSVPLLSRVGADRADRLRTDMEAAAAGWPGAALLRVDSRNRVLVANGRVLLGAAIELADKPPPEAVFLGRVEGGRHVWAVRAALQPIADPDIPAEAVDLRGLGRIMDDTSSQLVSSASALLNWHDNARFSALDGAPTKPARAGWSRVNPITGHEEFPRIDPAVICLVHDGADRAVLARQAAWPERMFSLLAGFVEAGESFEVCVAREIREEIGLTVRDVRYLGSQQWPFPRSLMVGFHALGDPDEEFSFSDGEIAEAAWFTRDEVRAALAAGDWSSASESKLLLPGSISIARVIIESWAACEEGHHHHHH | soluble
MSLSYEYFPGFYDRLMDSELYDEWLEFSADFIGDTSKKVLDLACGTAEFALRLSFLGHQVTGVDLSKEMVAVAKEKVAAAEINLSILEQDMSKLALNQTFDVITCFCDSLNYLETEQALENTIKAVSDHLTPNGLFLFDVHSVFKIDQGFKDYSYGDSDEEISIIWNSFPGEYPHSVEHELTFYILGEDNMYNRVDELHKERTYPITTYKELLKKYGFSKIDVYADFSHENPTNSSERIFFVARKEGHHHHHH | soluble
MSLTAAVRHSDVLVVGAGSAGSVVAERLSMDSSCVVTVLEAGPGLADPGLLAQTANGLQLPIGAGSPLVERYRTRLTDRPVRHLPIVRGATVGGSGAINGGYFCRGLPSDFDRASIPGWAWSDVLEHFRAIETDLDFETPVHGRSGPIPVRRTHEMTGITESFMAAAEDAGFAWIADLNDVGPEMPSGVGAVPLNIVNGVRTSSAVGYLMPALGRPNLTLLARTRAVRLRFSATTAVGVDAIGPGGPVSLSADRIVLCAGAIQSAHLLMLSGVGEEEVLRSAGVKVLMALPVGMGCSDHPEWVMPTNWAVAVDRPVLEVLLSTHDGIEIRPYTGGFVAMTGDGTAGHRDWPHIGVALMQPRARGRITLVSSDPQIPVRIEHRYDSEPADVAALRQGSALAHELCGAATRIGPAVWATSQHLCGSAPMGTDDDPRAVVDPRCRVRGIENLWVIDGSVLPSITSRGPHATIVMLGHRAAEFVQEGHHHHHH | soluble
MSLTDASFPALPPPLVSLGDLAWDVLAKPDTLLLPGGDTTGRLELSGGGSAANLAVWAARLGAPTTFVGKIGQDRFGELATAELRAEGVRAEVLASAAHPTGVILALIDRRGQRAMLTGQGADWELLPEELPRDVLSSAGHLHLTAWSLFRDPPRAAALEAARIAKAGGATLSLDPGSFQMIQQLGREAFLNIVDALPFDVMFPNDDEARAMSGERDNEAALTWLRARYPRALIALKMDEDGALIEGPQTARVQVPATRDPLVDATGAGDAFGGAFLSQWLRHHDAERAARVAVQVGGWVVSRFGARPPADPDLTRRLASVGADLLTPDPAAAPDPSQDSPEVNEGHHHHHH | soluble
MSLTEPRIVATYHIASDAERIEQRALALAIEQSVECPLEAIGDPAIVANIVGRVEDVAELQPGRYAVRIGLAAATAPAEPGQLLNMLFGNSSIQPDIALADVELPAHYLTAFGGPRVGLAGIRTLTGAQSRALTASALKPQGLSPAALASIAHQLALGGVDLIKDDHGLADQAFSPFAERAAAVGKAVREANAARGGRTLYAPNISGTLDDMRRQLGVIRDEGIGAVLVAPMIVGVSNFHAIVKEAAGLVVVAHPAMAGAAKIAAPLLLGRLFRLFGADATVFPNYGGRFAYSTASCLALAQAARDPFGKLNACIPTPAGGIMLQRVNELLRFYGQDVMLLIGGSLLASRERLTEQASRFVNKVADYGQREGHHHHHH | soluble
MSLTERRQATAIVRAHGHTSLARLTLLEDKSYCFSPSGESLIAFVQRGRGAIALGDPIGPARDREAIIQQFLRECQQNDWLPAFYQVLPDDLPLYQRQGLASDQIGQEAVIPLQDFSLQGKRGRGFRSTLSRLERAGYRFEVIPAAEIYPLLPELRFVSDTWLKRMKGPEKRFSVGWFDRDYLTSGSIAVVRSQDGQIQAFANWVEEFQRNELTLDLIRFLPSAESSTMEFLLVNTILAAKDRGFDSFSLGLSALSGLDQLDQPNQVEQGLDYLYRHLDRFYRFQGLHSFKEKFHPDWQPRYFVYPNLAAIPSLVVTLVRADSGDRWLDYFRANDEGHHHHHH | not soluble
MSLTETLDNTQDLLMDVDKYNFWEVEGEDAAGEVNSKDMDMVGVDEKSGAPVFRLTDNNDEQPLNENENGNFKFKMNTIATENMAYLTEKDKYKLYPSKVPGYDNSREYSSYVSKVFELYNDLDEHRVYSAPTIGIINKSYAREHNYVLNVAFESFVTELNFFIESIKNDPNLINRVLQLEESITILNCLKTIHFTFDSLQNESDSREQFVNSLIDWVNRSDGEPKEEYIEQIFTRNDNIEVFNTLQFWKLVNKLLLRGLFEQALGCLERSKIMDFLKSQCEVSANILGDAIALLEQYPIDSSETFREWKFMVLGLQQTYSNSNTKITGELRDYIEDTLLLIGGNQSKLLQYSSTWYEAYASFYLYYIPTLELSHDYLELALSTHPLDLTKNWEQACVNIINNKIYSILPVLESLDLCTAATTAALCEAKGILENFLDDDTKTFKGNVDKLVTPVHGMASYLLNQFAFELCSQEEKTLWPVAIGLISISPFESASVKRTTISEVLPRFPFSTNDDIEWMLAVCAKWRLPKIAKKIYKILGSKLQAEGNVIESMTNFSKAGEFDIVKNEGHHHHHH | soluble
